{
  "source": "patent US11078259B2",
  "about": "“Methods and compositions for promoting thermogenic potential” (Joslin Diabetes Center, Inc., priority 2015, dated 2021)",
  "key": {"[1]": {"tested_on": "hWAT-SVF and hBAT-SVF progenitors", "test": "Glucose uptake, fatty acid uptake and oxidation in adipocytes from BMP7 pre-treated progenitors", "format": "cell-based, human", "conditions": "hWAT-SVF from both subjects and hBAT-SVF from Subject 2; 3.3 nM BMP7 pre-exposure 6 days", "method": "(§1) FIG. 6B depicts OCR assayed using the Seahorse extracellular flux analyzer in differentiated hWA and hBA from Sub1 and Sub2 that were pre-treated with 3.3 nM BMP7 or vehicle (Veh) for 6 days and then differentiation into mature adipocytes. Equal numbers of progenitors were plated and differentiated. Quantification of OCR in the absence (Basal Res.) and presence of oligomycin (Proton Leak) or FCCP (Max. Res.) are shown. Data are presented as mean±s.e.m. (n=10; two-tailed Student's t-test; *P<0.05, **P<0.01, ***P<0.001). A representative experiment from a total of two independent studies is shown. Data are represented in the same order as appeared in the legend. […]\nAfter serum starvation in DMEM/H medium containing 1% of BSA for 2-3 h, differentiated human white and brown adipocytes were washed with HEPES buffer. […] Glucose transport was determined by the addition of 2-deoxy-[^3H]glucose (0.1 mM, 0.5 μCi/mL; PerkinElmer Life and Analytical Science, Waltham, Mass.). […] Cells were then lysed in 0.1% SDS, and glucose uptake was assessed in 4 mL of scintillant using Beckman LS6500 scintillation counter (Beckman Coulter, Indianapolis Ind.). Nonspecific 2-deoxy-[^3H]glucose uptake was measured in the presence of cytochalasin B (20 μM) and was subtracted from the total uptake to get specific glucose uptake. Results were expressed as the mean±s.e.m. of the indicated number of experiments. […]"}, "[2]": {"tested_on": "hWAT-SVF and hBAT-SVF progenitors", "test": "OCR (Seahorse) in adipocytes from BMP7 pre-treated progenitors", "format": "cell-based, human", "conditions": "hWAT-SVF from both subjects and hBAT-SVF from Subject 2; 3.3 nM BMP7 pre-exposure 6 days", "method": "as §1, with “legend. FIGS. 6C and 6D depict measurement of glucose uptake using ^3H 2-Deoxy-Glucose in differentiated hWA and hBA from Sub1 and Sub2 that were pre-treated with 3.3 nM BMP7 or vehicle (Veh) for 6 days and then differentiation into mature adipocytes.” for “legend.”\nTo assess mitochondrial respiration, a Seahorse Extracellular Flux Analyzer (Seahorse Bioscience Inc., North Billerica, Mass.) was used to quantify oxygen consumption rates (OCR) of differentiated human white and brown adipocytes. […] After adipogenic induction for 12 days, OCR was analyzed. […] All data were average of four-time points with 10 wells per time point by quantified in bar plots, and error bars are standard error of the mean (s.e.m.). […]"}},
  "data": [
    {"molecule": "BMP7: Recombinant human BMP7, an inducer of brown adipogenesis (protein, UniProt P18075 293-431, looked up) Bone morphogenetic protein 7: STGSKQRSQNRSKTPKNQEALRMANVAENSSSDQRQACKKHELYVSFRDLGWQDWIIAPEGYAAYYCEGECAFPLNSYMNATNHAIVQTLVHFINPETVPKPCCAPTQLNAISVLYFDDSSNVILKKYRNMVVRACGCH", "values": [
      {"measurement": "fuel utilization in mature adipocytes", "setting": "[1]", "result": "enhanced"},
      {"measurement": "mitochondrial activity in mature adipocytes", "setting": "[2]", "result": "enhanced"}
    ]}
  ]
}
